Experiments:
[1] = molecular target: Spermidine N-acetyltransferase (SpeG) from Escherichia coli (Escherichia coli str. K-12 substr. MG1655) (UniProt P0A951); assay: SPR; SpeG (46 uM) amine-coupled to a carboxymethyl dextran chip; RcsB constructs as analytes; no spermidine; 4 C; 10 mM HEPES pH 8.3, 100 mM sodium chloride; Reichert SR7500DC; one-to-one model
[2] = molecular target: Spermidine N-acetyltransferase (SpeG) from Escherichia coli (Escherichia coli str. K-12 substr. MG1655) (UniProt P0A951); assay: SPR; SpeG (46 uM) amine-coupled; the surface exposed to 0.5 mM spermidine before the RcsB constructs were injected as analytes; 4 C; 10 mM HEPES pH 8.3, 100 mM sodium chloride; Reichert4SR; one-to-one model

Chain of UniProt P0A951 (P0A951 whole entry): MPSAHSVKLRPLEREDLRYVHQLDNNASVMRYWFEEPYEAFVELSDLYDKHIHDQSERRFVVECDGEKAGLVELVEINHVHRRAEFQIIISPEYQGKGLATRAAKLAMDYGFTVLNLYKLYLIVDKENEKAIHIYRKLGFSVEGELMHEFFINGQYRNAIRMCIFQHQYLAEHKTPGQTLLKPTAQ

Substance	Kd [1] [µM]	Kd [2] [µM]
C-terminal DNA binding domain of RcsB (residues 128-216) (from UniProt P0DMC7 128-216) (domain or fragment)	67	281
full-length RcsB from Escherichia coli (from UniProt P0DMC7 1-216) (natural protein)		128

Reference: paper PMC6298664
